Source: patent US20260231954A1, “PESTICIDAL ENZYMES FOR USE ON NEMATODES, INSECTS, AND MOLLUSKS” (priority 2023, published 2026)

Legend:
[1] = test system: soybean cyst nematode (SCN, Heterodera glycines); test: Soybean cyst nematode reproduction on soybean after seed treatment, controlled environment (cysts per gram of root tissue or per plant); format: in vivo
[2] = test system: SCN juveniles (SCN HG type 1.2.5.7, race 2); test: In-vitro plate assay of SCN juvenile viability (difference in percent death); format: in vivo
Method: (§1) SCN eggs were obtained from SCN HG type 1.2.5.7, race 2. Eggs were rinsed 4 times with sterile water. Eggs were transferred to a 6-well plate and resuspended in 5 mL of 3 mM ZnSO4. The plate was sealed with parafilm, covered with aluminum foil to prevent light from entering the plate, and placed in a plate growth chamber at 25° C. and 80% relative humidity. After 6-7 days of incubation, an estimate of hatched SCN juveniles was obtained from the well to determine the overall number of juveniles per 10 μL. The concentration of the hatchery solution was adjusted until it consisted of 20-30 juveniles per 10 μL.
Potato dextrose agar media containing chloramphenicol and chlortetracycline was prepared and added to sterile twenty-four-well cell culture plates (1 mL per well). The plates were divided according to the pre-determined N-value for each treatment (N=12-24). Each treatment being tested was added to the agar surface within each well at a rate of 40 μL per well. Without allowing the treatments to dry, 10 μL of the prepared nematode mixture was added to the agar surface within each well.
To quantify the treatments' effects on nematode viability, the nematodes were examined under a dissecting microscope at 20× magnification. Initial (TO) values for the number of live juveniles, number of dead juveniles and total number of juveniles were recorded immediately after preparation of each well. The plates were then wrapped in parafilm around the open edge, encased in aluminum foil, and placed in secondary containment. The secondary containment was placed in a plant growth chamber at 25° C. and 80% relative humidity. At approximately 24 hours post addition of juveniles, the plates were evaluated, and the number of live juveniles, dead juveniles and total number of juveniles were recorded (T24).
The difference in percent death at T0 vs T24 was calculated by subtracting the percent dead at TO [(#dead juveniles/total #juveniles)×100] from the percent dead at T24 [(#dead juveniles/#total juveniles originally present)×100]. […] If the ANOVA indicated a significant difference existed among treatments, Tukey's HSD post hoc test was used to perform a pairwise contrast between each set of treatments. Different letters denote statistically significant results at P<0.05.
as §1, with “from” for “from SCN”, “rinsed four” for “rinsed 4”, “and 80-90%” for “and 80%”, “from each” for “from the”
Potato dextrose agar media containing chloramphenicol and chlortetracycline was prepared and added to sterile twenty-four-well cell culture plates (1 mL per well). The plates were divided according to the pre-determined N-value for each treatment (N=24). […]
To quantify the treatments' effects on nematode viability, the nematodes were examined under a dissecting microscope at 20× magnification. Initial (TO) values for the number of live juveniles, number of dead juveniles and total number of juveniles were recorded. […]

[3] = test system: soybean cyst nematode (SCN); test: SCN reproduction after application of enzyme or recombinant strain to soil; format: in vivo, Heterodera glycines; settings: Table 34; for % Comparison to Control (figure in parentheses): change vs water control; for % Comparison to Control: first figure, water control = 100%; for Average cysts per g of root tissue: free enzyme 0.5 mL/plant to soil, soybean 2830E3, 3 weeks
Method: To determine the efficacy of nematicidal enzymes applied to soil, a controlled environment trial was performed with 7-day old soybean plants (variety 2830E3) grown in pots. Enzymes were produced as described in Example 2. Prior to inoculation, 0.5 mL of neutral protease (SEQ ID NO: 127), esterase B (SEQ ID NO: 89), or chitinase 19F (SEQ ID NO: 182) free enzyme solution was applied to the soil around the base of each plant, or 0.5 mL of water was applied for the control (30 plants per treatment). Then, hatched SCN juveniles were applied to the soil around each plant as described in Example 2, and three weeks later, cysts per gram of root tissue was determined as described in Example 2. The data was analyzed as in Example 2 and appears in Tables 33 and 34.
To determine the efficacy of recombinant strains applied to soil, a controlled environment trial was performed as described in Example 18 above (Reduction of soybean cyst nematode reproduction by enzymes applied to soil), with the exception that a recombinant strain expressing neutral protease (SEQ ID NO: 127) was applied instead of a free enzyme solution. The recombinant strain was produced as in Example 3, and the treatment applied to soil as a whole cell broth.

[4] = test system: Fall armyworm (Spodoptera frugiperda); test: Diet-surface overlay (DSO) bioassay on Fall armyworm; format: in vivo; settings: for Larva Stage I / Larva Stage II / Larva Stage III / Larva Stage IV / Dead Larva: Fall armyworm
Method: Diet-surface overlay bioassays are conducted with artificial diet mixes without antibiotics in 1.5 cm^2 cell bioassay trays(s). Artificial diets are commercially available from Southland Products Inc. Diets were prepared by dispersing 0.5 mL of molten diet to each 1.5 cm^2 cell. After solidification, 0.1 mL enzyme treatments were dispersed on top of diet in each cell and the tray was gently rocked in an orbital shaker to spread the liquid uniformly over the diet surface. Trays were placed under clean airflow until the surface of each cell was uniformly dried. One or two 16-cell sections were used per treatment (the number in larvae treated was 16 or 32).
One healthy first instar larva was placed into each treatment cell, each 16-cell section was covered with a re-sealable lid and incubated at 27° C. and light-dark period of 16:8 hrs. After 7 days, and according to the species, the number of individuals in the following developmental categories was recorded.
Negative/untreated controls were treated with filtered water and positive controls were treated with lethal doses of Bacillus thuringiensis subsp. Kurstaki (Btk) spores at 1000 ppm.

[5] = Table 11, free enzyme seed treatment 2 fl. oz. per unit of seed (ILEVO 0.15 mg active ingredient per seed), soybean P18A98X, 3 weeks after inoculation
[6] = Table 50, esterases, number of individuals of n = 32
[7] = Table 48, chitinases, number of individuals of n = 32, DSO bioassay

B1: Esterase B (SEQ ID NO: 89): Bacillus subtilis Esterase (EstB without signal sequence) (protein, listed as Bacillus subtilis)
chain: ESVHNPVVLVHGISGASYNFFAIKNYLISQGWQSNKLYAIDFYDKTGNNLNNGPQLASYVDRVLKETGAKKVDIVAHSMGGANTLYYIKYLGGGNKIQNVVTLGGANGLVSSTALPGTDPNQKILYTSIYSLNDQIVINSLSRLQGARNIQLYGIGHIGLLSNSQVNGYIKEGLNGGGLNTN
modifications: Esterase (EstB H191 without signal sequence)
Q: B1 was tested. Which “Average cysts per g of root tissue” value [1, 5] did it give?
A: 19.6 cysts per g of root tissue

Q: What about the “Average cysts per g of root tissue” value ([1]; Table 15, seed treated with whole cell broth, soybean P18A98X) of the same molecule?
A: 56.3 cysts per g of root tissue

Q: And the “Average cysts per g of root tissue” value ([1]; Table 25, dried formulation 0.04 units of enzyme activity per seed, liquid 2 fl oz per unit of seed, soybean 3230E3)?
A: 233.2 cysts per g of root tissue

Q: What about the “Difference in Percent Death of Nematodes for 0 to 24 Hours” value ([2]; Table 28, 40 μL of each treatment per well, fertilizer diluted to 3% v/v) of the same molecule?
A: 3%

Q: What about the “difference in percent death over twenty-four hours relative to the combination treatment” value ([2]; single treatment vs Esterase B + 10-34-0 fertilizer combination) of the same molecule?
A: −7%

Q: And the “% Comparison to Control (figure in parentheses)” value [3]?
A: −16%

Q: And the “% Comparison to Control” value [3]?
A: reduced SCN reproduction

Q: And the “% Comparison to Control” value ([3]; listed as Esterase B free enzyme (SEQ ID NO: 89))?
A: 84%

Q: And the “Average cysts per g of root tissue” value [3]?
A: 117.3 cysts per g of root tissue

Q: And the “Larva Stage I” value [4, 6]?
A: 3

Q: And the “Larva Stage II” value [4, 6]?
A: 4

Q: What about the “Larva Stage III” value [4, 6] of the same molecule?
A: 14

Q: And the “Larva Stage IV” value [4, 6]?
A: 10

Q: And the “Dead Larva” value ([4]; Table 50, esterases, number of individuals of n = 32, DSO bioassay, dose per treatment in U/mL Diet)?
A: 1

Q: And the “individuals with delayed development” value ([4]; text to Table 50, esterases, n = 32)?
A: 67%

B2: Chitinase 19F (SEQ ID NO: 182): Streptomyces coelicolor Chitinase F (Chi19F) (protein)
chain: ASCSSYHAWSADANYNTGDIVRYTDGKAYIAEHANPGYDPLISTWYWDPYACDGGSQTPVGNFVVSEAQFNQMFPGRNSFYTYSGLTAALSAYPGFANTGSDTTKKQEAAAFLANVSHETGGLVYIVEQNTANYPHYCDWNQPYGCPAGQAAYYGRGPIQLSWNFNYKAAGDALGIDLLGNPWLVQNDAAVAWKTGLWYWNTQSGPGTMTPHNAMVNGAGFGQTIRSINGSLECDGKNPAQVQSRVTKYQQFAQILGVSPGGNLYC
modifications: Chitinase F (Chi19F); Streptomyces coelicolor
Q: For B2, which “Average cysts per g of root tissue” value [1, 5] is on record?
A: 48.8 cysts per g of root tissue

Q: And the “Average cysts per g of root tissue” value ([1]; Table 12, free enzyme seed treatment 2 fl. oz. per unit of seed (ILEVO 0.15 mg active ingredient per seed), soybean P18A98X)?
A: 296.9 cysts per g of root tissue

Q: What about the “Difference in Percent Death of Nematodes for 0 to 24 Hours” value ([2]; Table 32, 40 μL per well of each treatment, water only 4%) of the same molecule?
A: 24%

Q: And the “% Comparison to Control (figure in parentheses)” value [3]?
A: −32%

Q: What about the “% Comparison to Control” value [3] of the same molecule?
A: reduced SCN reproduction

Q: And the “% Comparison to Control” value ([3]; listed as Chitinase 19F free enzyme (SEQ ID NO: 182))?
A: 68%

Q: What about the “Average cysts per g of root tissue” value [3] of the same molecule?
A: 95.6 cysts per g of root tissue

Q: What about the “Larva Stage I” value [4, 7] of the same molecule?
A: 4

Q: And the “Larva Stage II” value [4, 7]?
A: 14

Q: What about the “Larva Stage III” value [4, 7] of the same molecule?
A: 5

Q: And the “Larva Stage IV” value [4, 7]?
A: 6

Q: What about the “Dead Larva” value ([4]; Table 48, chitinases, number of individuals of n = 32, DSO bioassay, dose per treatment in mU/mL Diet) of the same molecule?
A: 3
